Source: patent publication US7951595B2, “Methods for screening modulators of SLC17-type anion transport activity” (National University Corporation Okayama University, priority 2007, dated 2011)

Tests used:
human SLC17A9 = molecular target: T1, human SLC17A9 (Homo sapiens, UniProt Q9BYT1, N228S); test: Nucleotide transport by human SLC17A9 reconstituted proteoliposomes (valinomycin-induced membrane potential, radiolabelled substrate); format: biochemical
T1 construct: His6 (from pDEST10 vector); made in house; host or cells: insect cells, baculovirus system (Sf9 named for virus production)
T1 sequence (Q9BYT1 1-430 isoform Q9BYT1-2 N222S): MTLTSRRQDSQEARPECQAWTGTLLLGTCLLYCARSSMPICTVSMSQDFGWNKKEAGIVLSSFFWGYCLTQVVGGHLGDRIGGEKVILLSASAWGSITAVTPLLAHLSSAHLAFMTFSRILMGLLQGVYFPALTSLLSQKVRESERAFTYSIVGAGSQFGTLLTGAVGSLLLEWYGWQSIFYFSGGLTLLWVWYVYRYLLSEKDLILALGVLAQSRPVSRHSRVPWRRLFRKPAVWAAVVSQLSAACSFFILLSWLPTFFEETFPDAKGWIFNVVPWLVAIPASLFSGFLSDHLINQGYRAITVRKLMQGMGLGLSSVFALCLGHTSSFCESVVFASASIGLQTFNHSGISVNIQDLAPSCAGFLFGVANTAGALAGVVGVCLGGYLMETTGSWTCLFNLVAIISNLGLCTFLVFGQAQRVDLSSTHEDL
Procedure: (§1) 10 μg of purified SLC17A9 and 0.5 mg of soybean-derived lipids were mixed and incubated at −80° C. for 5 minutes or more. The mixture was thawed quickly by holding the tube in the hands, and was diluted 60-fold with a buffer solution containing 20 mM MOPS-Tris (pH 7.0), 0.15M sodium acetate, 2 mM magnesium acetate and 0.5 mM DTT. This dilution was centrifuged at 200,000×g at 4° C. for one hour, the supernatant was discarded, and the precipitate was resuspended in a buffer solution containing 20 mM MOPS-Tris (pH 7.0), 0.15M sodium acetate, 2 mM magnesium acetate and 0.5 mM DTT, to obtain SLC17A9 reconstituted proteoliposomes. As a control, liposomes without SLC17A9 were used.
The nucleotide transport activity was measured by the following procedure. The reconstituted proteoliposomes were incubated in a buffer solution containing 20 mM MOPS-Tris (pH 7.0), 0.15M potassium acetate, 2 mM magnesium acetate and 4 mM potassium chloride, at 27° C. for 2 minutes, and valinomycin was added thereto to a final concentration of 2 μM. The mixture was incubated for further 2 minutes. The point of addition of 0.1 mM [α-^32P]ATP (3.7 GBq/mmol) was defined as the initiation of activity measurement. At a predetermined time point, 130 μL of the reaction liquid was recovered and centrifuged through a Sephadex G-50 (fine) spin column at 760×g for 2 minutes. The uptake of ATP was measured by measuring the radioactivity included in the reaction liquid that had passed through the column using a liquid scintillation counter. In the measurement of the transport activity for ADP and GTP, [2,8-^3H]ADP (0.37 GBq/mmol) and [α-^32P]GTP (3.7 GBq/mmol) were used instead of ATP as the substrate.
In an experiment for an inhibitor, a predetermined concentration of an inhibitor was added upon incubation of the proteoliposomes.

[1] = tested on: SLC17 family transporter proteins; test: ATP uptake by other SLC17 family proteins reconstituted like SLC17A9; format: biochemical; conditions: 0.1 mM [α-32P]ATP, uptake after 2 minutes, relative to SLC17A9 protein
Procedure: as §1
The nucleotide transport activity was measured by the following procedure. The reconstituted proteoliposomes were incubated in a buffer solution containing 20 mM MOPS-Tris (pH 7.0), 0.15M potassium acetate, 2 mM magnesium acetate and 4 mM potassium chloride, at 27° C. for 2 minutes, and valinomycin was added thereto to a final concentration of 2 μM. The mixture was incubated for further 2 minutes. […] At a predetermined time point, 130 μL of the reaction liquid was recovered and centrifuged through a Sephadex G-50 (fine) spin column at 760×g for 2 minutes.
Each of the transporter proteins that belong to the SLC17 family was purified in the same manner as in the case of SLC17A9, and was reconstituted according to the technique of Example 11.

| Molecule | ATP Transport (%) [1] | other results |
| --- | --- | --- |
| Cc1cc(-c2ccc(/N=N/c3ccc4c(S(=O)(=O)O)cc(S(=O)(=O)O)c(N)c4c3O)c(C)c2)ccc1/N=N/c1ccc2c(S(=O)(=O)O)cc(S(=O)(=O)O)c(N)c2c1O [Evans Blue] | – | IC50 (human SLC17A9; SLC17A9 reconstituted proteoliposomes, FIG. 17B): 40 nM |
| Cl [chloride ions] | – | chloride ion concentration at which ATP uptake activity reached a steady state (human SLC17A9; chloride ions at various concentrations, FIG. 14): 4 mM |
| CC(C)[C@@H]1NC(=O)[C@H](C)OC(=O)[C@@H](C(C)C)NC(=O)[C@@H](C(C)C)OC(=O)[C@H](C(C)C)NC(=O)[C@H](C)OC(=O)[C@@H](C(C)C)NC(=O)[C@@H](C(C)C)OC(=O)[C@H](C(C)C)NC(=O)[C@H](C)OC(=O)[C@@H](C(C)C)NC(=O)[C@@H](C(C)C)OC1=O [valinomycin] | – | effect on uptake of radioactive ATP (human SLC17A9; ATP 100 μM, valinomycin 2 μM, FIG. 13(B)): activated |
| C=C1[C@@H]2CC[C@H]3[C@]4(C)C[C@H](O[C@@H]5O[C@H](CO)[C@@H](OS(=O)(=O)O)[C@H](OS(=O)(=O)O)[C@H]5OC(=O)CC(C)C)C[C@@H](C(=O)O)[C@H]4CC[C@]3(C2)[C@H]1O [atractyloside] | – | effect of addition on the ATP uptake (human SLC17A9; atractyloside 200 μM, with or without Mg2+, FIG. 17(C)): Only when Mg^2+ was present, the ATP uptake was inhibited |
| VGLUT3: SLC17 family transporter protein, gene SLC17A8 (protein, UniProt Q8NDX2 1-589, looked up) Vesicular glutamate …: MPFKAFDTFKEKILKPGKEGVKNAVGDSLGILQRKIDGTTEEEDNIELNEEGRPVQTSRPSPPLCDCHCCGLPKRYIIAIMSGLGFCISFGIRCNLGVAIVEMVNNSTVYVDGKPEIQTAQFNWDPETVGLIHGSFFWGYIMTQIPGGFISNKFAANRVFGAAIFLTSTLNMFIPSAARVHYGCVMCVRILQGLVEGVTYPACHGMWSKWAPPLERSRLATTSFCGSYAGAVVAMPLAGVLVQYIGWSSVFYIYGMFGIIWYMFWLLQAYECPAAHPTISNEEKTYIETSIGEGANVVSLSKFSTPWKRFFTSLPVYAIIVANFCRSWTFYLLLISQPAYFEEVFGFAISKVGLLSAVPHMVMTIVVPIGGQLADYLRSRQILTTTAVRKIMNCGGFGMEATLLLVVGFSHTKGVAISFLVLAVGFSGFAISGFNVNHLDIAPRYASILMGISNGVGTLSGMVCPLIVGAMTRHKTREEWQNVFLIAALVHYSGVIFYGVFASGEKQEWADPENLSEEKCGIIDQDELAEEIELNHESFASPKKKMSYGATSQNCEVQKKEWKGQRGATLDEEELTSYQNEERNFSTIS | 7.1 ± 2.1% | – |
| SLC17A9 protein: purified SLC17A9 membrane protein, vesicular nucleotide transporter (protein, UniProt Q9BYT1 1-436, looked up) Voltage-gated purine …: MQPPPDEARRDMAGDTQWSRPECQAWTGTLLLGTCLLYCARSSMPICTVSMSQDFGWNKKEAGIVLSSFFWGYCLTQVVGGHLGDRIGGEKVILLSASAWGSITAVTPLLAHLSSAHLAFMTFSRILMGLLQGVYFPALTSLLSQKVRESERAFTYSIVGAGSQFGTLLTGAVGSLLLEWYGWQSIFYFSGGLTLLWVWYVYRYLLSEKDLILALGVLAQSRPVSRHNRVPWRRLFRKPAVWAAVVSQLSAACSFFILLSWLPTFFEETFPDAKGWIFNVVPWLVAIPASLFSGFLSDHLINQGYRAITVRKLMQGMGLGLSSVFALCLGHTSSFCESVVFASASIGLQTFNHSGISVNIQDLAPSCAGFLFGVANTAGALAGVVGVCLGGYLMETTGSWTCLFNLVAIISNLGLCTFLVFGQAQRVDLSSTHEDL | 100.0% | – |
| VGLUT1: SLC17 family transporter protein, gene SLC17A7 (protein, UniProt Q9P2U7 1-560, looked up) Vesicular glutamate …: MEFRQEEFRKLAGRALGKLHRLLEKRQEGAETLELSADGRPVTTQTRDPPVVDCTCFGLPRRYIIAIMSGLGFCISFGIRCNLGVAIVSMVNNSTTHRGGHVVVQKAQFSWDPETVGLIHGSFFWGYIVTQIPGGFICQKFAANRVFGFAIVATSTLNMLIPSAARVHYGCVIFVRILQGLVEGVTYPACHGIWSKWAPPLERSRLATTAFCGSYAGAVVAMPLAGVLVQYSGWSSVFYVYGSFGIFWYLFWLLVSYESPALHPSISEEERKYIEDAIGESAKLMNPLTKFSTPWRRFFTSMPVYAIIVANFCRSWTFYLLLISQPAYFEEVFGFEISKVGLVSALPHLVMTIIVPIGGQIADFLRSRRIMSTTNVRKLMNCGGFGMEATLLLVVGYSHSKGVAISFLVLAVGFSGFAISGFNVNHLDIAPRYASILMGISNGVGTLSGMVCPIIVGAMTKHKTREEWQYVFLIASLVHYGGVIFYGVFASGEKQPWAEPEEMSEEKCGFVGHDQLAGSDDSEMEDEAEPPGAPPAPPPSYGATHSTFQPPRPPPPVRDY | 1.7 ± 0.7% | – |
| VGLUT2: SLC17 family transporter protein, gene SLC17A6 (protein, UniProt Q9P2U8 1-582, looked up) Vesicular glutamate …: MESVKQRILAPGKEGLKNFAGKSLGQIYRVLEKKQDTGETIELTEDGKPLEVPERKAPLCDCTCFGLPRRYIIAIMSGLGFCISFGIRCNLGVAIVDMVNNSTIHRGGKVIKEKAKFNWDPETVGMIHGSFFWGYIITQIPGGYIASRLAANRVFGAAILLTSTLNMLIPSAARVHYGCVIFVRILQGLVEGVTYPACHGIWSKWAPPLERSRLATTSFCGSYAGAVIAMPLAGILVQYTGWSSVFYVYGSFGMVWYMFWLLVSYESPAKHPTITDEERRYIEESIGESANLLGAMEKFKTPWRKFFTSMPVYAIIVANFCRSWTFYLLLISQPAYFEEVFGFEISKVGMLSAVPHLVMTIIVPIGGQIADFLRSKQILSTTTVRKIMNCGGFGMEATLLLVVGYSHTRGVAISFLVLAVGFSGFAISGFNVNHLDIAPRYASILMGISNGVGTLSGMVCPIIVGAMTKNKSREEWQYVFLIAALVHYGGVIFYAIFASGEKQPWADPEETSEEKCGFIHEDELDEETGDITQNYINYGTTKSYGATTQANGGWPSGWEKKEEFVQGEVQDSHSYKDRVDYS | 0.1 ± 0.2% | – |
| Sialin: SLC17 family transporter protein, gene SLC17A5 (protein, UniProt Q9NRA2 1-495, looked up) Sialin: MRSPVRDLARNDGEESTDRTPLLPGAPRAEAAPVCCSARYNLAILAFFGFFIVYALRVNLSVALVDMVDSNTTLEDNRTSKACPEHSAPIKVHHNQTGKKYQWDAETQGWILGSFFYGYIITQIPGGYVASKIGGKMLLGFGILGTAVLTLFTPIAADLGVGPLIVLRALEGLGEGVTFPAMHAMWSSWAPPLERSKLLSISYAGAQLGTVISLPLSGIICYYMNWTYVFYFFGTIGIFWFLLWIWLVSDTPQKHKRISHYEKEYILSSLRNQLSSQKSVPWVPILKSLPLWAIVVAHFSYNWTFYTLLTLLPTYMKEILRFNVQENGFLSSLPYLGSWLCMILSGQAADNLRAKWNFSTLCVRRIFSLIGMIGPAVFLVAAGFIGCDYSLAVAFLTISTTLGGFCSSGFSINHLDIAPSYAGILLGITNTFATIPGMVGPVIAKSLTPDNTVGEWQTVFYIAAAINVFGAIFFTLFAKGEVQNWALNDHHGHRH | 2.1 ± 0.8% | – |
| NPT1: SLC17 family transporter protein, gene SLC17A1 (protein, UniProt Q14916 1-467, looked up) Sodium-dependent phosphate …: MQMDNRLPPKKVPGFCSFRYGLSFLVHCCNVIITAQRACLNLTMVVMVNSTDPHGLPNTSTKKLLDNIKNPMYNWSPDIQGIILSSTSYGVIIIQVPVGYFSGIYSTKKMIGFALCLSSVLSLLIPPAAGIGVAWVVVCRAVQGAAQGIVATAQFEIYVKWAPPLERGRLTSMSTSGFLLGPFIVLLVTGVICESLGWPMVFYIFGACGCAVCLLWFVLFYDDPKDHPCISISEKEYITSSLVQQVSSSRQSLPIKAILKSLPVWAISTGSFTFFWSHNIMTLYTPMFINSMLHVNIKENGFLSSLPYLFAWICGNLAGQLSDFFLTRNILSVIAVRKLFTAAGFLLPAIFGVCLPYLSSTFYSIVIFLILAGATGSFCLGGVFINGLDIAPRYFGFIKACSTLTGMIGGLIASTLTGLILKQDPESAWFKTFILMAAINVTGLIFYLIVATAEIQDWAKEKQHTRL | 2.0 ± 1.1% | – |
